Several values for one entry are separate records, joined by “and”; a condition that tells them apart may be missing. Equal values may be shown once. Read-outs that look alike come from different tables or passages of the source. Ends that are not written are not given here. Peptide text beside a SMILES is read from it. * marks the point of attachment. X1 = N[C@H]1CS[As]2SC[C@H](NC1=O)C(=O)N1CCC[C@H]1C(=O)NCC(=O)N[C@H]1CS[As](SC[C@@H](C(=O)*)NC1=O)c1c(O)ccc3c1Oc1c(ccc(O)c12)C31OC(=O)c2ccccc21
Key:
[1] = biological target: T1, GST–KLHL3^290–587 (Homo sapiens, UniProt Q9UH77); assay: Fluorescence polarization binding of Lumio-Green-labelled degron peptides to the KLHL3 Kelch domain
T1 construct: the isolated C-terminal Kelch domain (residues 290–587); made in house; host or cells: E. coli BL21
T1 sequence (Q9UH77 290-587): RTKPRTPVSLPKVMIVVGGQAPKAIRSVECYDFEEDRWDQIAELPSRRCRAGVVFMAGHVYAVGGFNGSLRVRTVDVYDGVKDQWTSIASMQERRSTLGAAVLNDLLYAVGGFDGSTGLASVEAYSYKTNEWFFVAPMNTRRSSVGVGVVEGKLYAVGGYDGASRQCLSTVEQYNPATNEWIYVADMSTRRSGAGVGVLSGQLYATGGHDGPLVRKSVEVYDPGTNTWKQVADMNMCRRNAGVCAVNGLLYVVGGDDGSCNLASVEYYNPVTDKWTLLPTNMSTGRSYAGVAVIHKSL

[2] = biological target: core 11-residue WNK4 peptide (WNK4 WT 557–567), Lumio-Green-labelled; assay: fluorescence polarisation; Kelch protein titrated against 10 nM Lumio-Green-labelled peptide; 25°C; 50 mM Tris/HCl pH 7.5, 150 mM NaCl, 2 mM DTT; one-site specific binding with Hill slope; duplicates, at least 12 points per curve
[3] = biological target: T2, GST–KLHL3^290–587 (human, UniProt Q9UH77-1 290-587); assay: as above; details: both partners purified
T2 construct: KLHL3, human, NM_017415.2, C-terminal Kelch domain, residues 290-587; pGEX6P-1, PreScission site between GST and KLHL3; eluted with glutathione as the GST fusion; also called isolated KLHL3 Kelch domain; GST-KLHL3 290-587 wild-type; source: E. coli BL21, purified (glutathione–Sepharose); not shown: GST, N-terminal, kept
T2 sequence (looked up): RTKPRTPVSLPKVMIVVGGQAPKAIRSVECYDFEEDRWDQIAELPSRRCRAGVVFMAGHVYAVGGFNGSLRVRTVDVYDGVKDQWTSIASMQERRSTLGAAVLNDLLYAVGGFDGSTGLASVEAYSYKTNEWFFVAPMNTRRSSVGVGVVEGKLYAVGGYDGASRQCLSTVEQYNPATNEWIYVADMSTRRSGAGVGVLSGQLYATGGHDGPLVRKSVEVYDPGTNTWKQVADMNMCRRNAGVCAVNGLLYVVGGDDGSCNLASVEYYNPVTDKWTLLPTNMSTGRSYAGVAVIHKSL

[4] = biological target: T3, KEAP1 full-length protein (residues 1–624) (UniProt Q14145 1-624); assay: as above; details: both partners purified
T3 construct: KEAP1, NM_203500.1, amplified from EST IMAGE 3163902, residues 1-624; NM_203500.1 is a human transcript as far as I recall; also called Kelch-like enoyl-CoA hydratase-associated protein 1; source: Sf21 cells, purified (ampicillin–Sepharose, TEV protease release, size-exclusion chromatography); not shown: DAC, N-terminal, cleaved
T3 sequence (Q14145 whole entry, the tested form may be a part): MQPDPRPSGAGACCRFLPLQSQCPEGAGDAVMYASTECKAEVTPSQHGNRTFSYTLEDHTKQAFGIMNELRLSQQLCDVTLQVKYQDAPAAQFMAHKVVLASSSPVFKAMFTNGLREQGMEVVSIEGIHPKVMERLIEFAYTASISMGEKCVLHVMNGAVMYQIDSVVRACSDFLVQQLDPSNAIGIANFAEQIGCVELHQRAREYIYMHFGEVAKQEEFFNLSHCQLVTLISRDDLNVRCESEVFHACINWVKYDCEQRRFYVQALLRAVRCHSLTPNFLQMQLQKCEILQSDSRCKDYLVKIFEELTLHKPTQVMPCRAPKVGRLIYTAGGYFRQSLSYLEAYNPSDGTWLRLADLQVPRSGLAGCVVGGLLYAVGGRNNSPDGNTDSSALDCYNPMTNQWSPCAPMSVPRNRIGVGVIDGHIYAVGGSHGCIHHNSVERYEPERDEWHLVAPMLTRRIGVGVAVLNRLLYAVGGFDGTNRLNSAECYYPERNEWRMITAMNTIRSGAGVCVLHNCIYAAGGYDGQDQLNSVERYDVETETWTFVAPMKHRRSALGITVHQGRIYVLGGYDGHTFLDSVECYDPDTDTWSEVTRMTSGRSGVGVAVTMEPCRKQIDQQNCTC

[5] = biological target: T4, human KLHL2 Kelch domain (residues 294–593) (human, UniProt O95198 294-593); assay: crystal structure; KLHL2 Kelch domain (9 mg/ml) with 2 mM WNK4 11-mer peptide; sitting drop, 20°C, 0.1 M Hepes pH 7.2, 2.5 M ammonium sulfate, 2% PEG 400; details: both partners purified
T4 construct: KLHL2, human, IMAGE clone 4791972, Kelch domain, residues 294-593; Vector pNIC28-Bsa4 (GenBank EF198106); The results speak of unmodelled residues 292–305, which lie partly before the stated limit; also called KLHL2 (crystallization construct); Mayven; source: E. coli BL21(DE3)-R3-pRARE, purified (Ni-Sepharose, rTEV cleavage, HiTrap SP, Superdex 200); not shown: His6, N-terminal, cleaved
T4 sequence (looked up): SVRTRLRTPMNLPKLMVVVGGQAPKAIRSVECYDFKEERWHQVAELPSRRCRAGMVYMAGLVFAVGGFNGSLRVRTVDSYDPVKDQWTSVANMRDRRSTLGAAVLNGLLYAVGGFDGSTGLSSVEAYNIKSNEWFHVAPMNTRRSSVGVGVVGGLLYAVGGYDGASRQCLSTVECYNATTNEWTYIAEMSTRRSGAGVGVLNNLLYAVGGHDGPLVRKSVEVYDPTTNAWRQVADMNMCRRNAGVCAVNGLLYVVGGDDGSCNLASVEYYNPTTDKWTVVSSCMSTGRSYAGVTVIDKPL

[6] = biological target: T5, human KLHL3 Kelch domain (residues 298–587) (human, UniProt Q9UH77-1 298-587); assay: crystal structure; KLHL3 Kelch domain (9 mg/ml) with 2 mM WNK4 11-mer peptide; sitting drop, 0.1 M acetate pH 4.3, 0.2 M ammonium sulfate, 25–35% PEG 4000; details: both partners purified
T5 construct: KLHL3, human, NM_017415.2, Kelch domain, residues 298-587; Vector pNIC28-Bsa4 (GenBank EF198106); The results speak of unmodelled residues 296–299, which lie partly before the stated limit; also called KLHL3 (crystallization construct); source: E. coli BL21(DE3)-R3-pRARE, purified (Ni-Sepharose, rTEV cleavage, HiTrap Q, Superdex 200); not shown: His6, N-terminal, cleaved
T5 sequence (looked up): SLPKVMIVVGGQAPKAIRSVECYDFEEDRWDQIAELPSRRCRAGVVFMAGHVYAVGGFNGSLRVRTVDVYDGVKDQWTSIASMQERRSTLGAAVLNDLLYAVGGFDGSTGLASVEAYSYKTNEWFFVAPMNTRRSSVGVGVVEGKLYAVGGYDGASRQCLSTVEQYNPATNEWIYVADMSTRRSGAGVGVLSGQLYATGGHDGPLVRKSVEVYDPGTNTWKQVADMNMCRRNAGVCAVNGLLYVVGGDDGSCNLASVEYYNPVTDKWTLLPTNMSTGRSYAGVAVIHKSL

[7] = disease-causing mutation within the WNK4 degron peptide, Figure 1C

Row | Molecule | Kd [3] | also measured
1 | WNK4 E562K 549–567: 19-residue WNK4 degron peptide with Gordon's syndrome mutation E562K, Lumio Green labelled (GPPSVFPPEPEEPKADQHQ; not fully specified (N-terminus); also: Lumio Green fluorophore on N-terminal linker CCPGCCGGGG) | – | binding to KLHL3 in words [1, 7]: virtually abolished binding
2 | CC(C)[C@H](NC(=O)[C@H](CO)NC(=O)[C@@H]1CCCN1C(=O)[C@@H]1CCCN1C(=O)CNC(=O)CNC(=O)CNC(=O)CNC(=O)CNC(=O)[C@@H]1CS[As]2SC[C@H](NC(=O)CNC(=O)[C@@H]3CCCN3C(=O)[C@@H]3CS[As](SC[C@H](N)C(=O)N3)c3c(O)ccc4c3Oc3c(ccc(O)c32)C42OC(=O)c3ccccc32)C(=O)N1)C(=O)N[C@@H](Cc1ccccc1)C(=O)N1CCC[C@H]1C(=O)N1CCC[C@H]1C(=O)N[C@@H](CCC(=O)O)C(=O)N1CCC[C@H]1C(=O)N[C@@H](CCC(=O)O)C(=O)N[C@@H](CCC(=O)O)C(=O)N1CCC[C@H]1C(=O)N[C@@H](CCC(=O)O)C(=O)N[C@@H](C)C(=O)N[C@@H](CC(=O)O)C(=O)N[C@@H](CCC(=O)O)C(=O)N[C@@H](Cc1cnc[nH]1)C(=O)N[C@@H](CCC(N)=O)C(=O)O (stereo partly shown) [WNK4 Q565E 549–567] (X1-GGGGGPPSVFPPEPEEPEADEHQ-OH; N-terminus and C-terminus assumed) | – | reduction in binding relative to wild-type WNK4 degron peptide [1]: 10 fold
3 | GST–KLHL2^298–593 (from UniProt O95198 298-593) (domain or fragment) | – | Kd [2]: 0.26 µM
4 | WNK4 D564A 549–567: 19-residue WNK4 degron peptide with Gordon's syndrome mutation D564A, Lumio Green labelled (GPPSVFPPEPEEPEAAQHQ; not fully specified (N-terminus); also: Lumio Green fluorophore on N-terminal linker CCPGCCGGGG) | – | reduction in binding relative to wild-type WNK4 degron peptide [1, 7]: 10 fold
5 | CCPGCCGGGGLQLDEETGEFL (cysteine pairing not given here; also: Lumio Green fluorophore on N-terminal linker CCPGCCGGGG, nuclear factor-erythroid 2-related factor 2 (NRF2), degron motif, residues 74-84; also called NRF2 degron motif; source: synthetic peptide (GL Biochem)) [NRF2 degron peptide (NRF2 WT 74–84)] | > 50 µM | –
6 | ECEETEVDQHV (not fully specified (N-terminus); also: Lumio Green fluorophore on N-terminal linker CCPGCCGGGG, also called WNK3 motif; source: synthetic peptide (GL Biochem)) [WNK3 degron peptide (WNK3 WT 537–547)] | 0.84 µM | Kd [4]: > 50 µM
7 | GPPSVFPPEPEEPEAAQHQ (not fully specified (N-terminus); also: Lumio Green fluorophore on N-terminal linker CCPGCCGGGG, source: synthetic peptide (GL Biochem)) [WNK4 D564A 549–567 peptide] | > 50 µM | –
8 | GPPSVFPPEPEEPKADQHQ (not fully specified (N-terminus); also: Lumio Green fluorophore on N-terminal linker CCPGCCGGGG, source: synthetic peptide (GL Biochem)) [WNK4 E562K 549–567 peptide] | > 50 µM | –
9 | GPPSVFPPEPEEPEADEHQ (not fully specified (N-terminus); also: Lumio Green fluorophore on N-terminal linker CCPGCCGGGG, source: synthetic peptide (GL Biochem)) [WNK4 Q565E 549–567 peptide] | 6.21 µM | –
10 | FPPEPEEPEAD (not fully specified (N-terminus); also: Lumio Green fluorophore on N-terminal linker CCPGCCGGGG, WNK4 acidic degron, residues 554-564; source: synthetic peptide (GL Biochem)) [WNK4 WT 554–564 peptide] | > 50 µM | –
11 | FPPEPEEPEADQH (not fully specified (N-terminus); also: Lumio Green fluorophore on N-terminal linker CCPGCCGGGG, WNK4 acidic degron, residues 554-566; source: synthetic peptide (GL Biochem)) [WNK4 WT 554–566 peptide] | 7.81 µM | –
12 | FPPEPEEPEADQHQ (not fully specified (N-terminus); also: Lumio Green fluorophore on N-terminal linker CCPGCCGGGG, WNK4 acidic degron, residues 554-567; source: synthetic peptide (GL Biochem)) [WNK4 WT 554–567 peptide] | 0.71 µM | –
13 | PPEPEEPEADQHQ (not fully specified (N-terminus); also: Lumio Green fluorophore on N-terminal linker CCPGCCGGGG, WNK4 acidic degron, residues 555-567; source: synthetic peptide (GL Biochem)) [WNK4 WT 555–567 peptide] | 0.91 µM | –
14 | PEPEEPEADQHQ (not fully specified (N-terminus); also: Lumio Green fluorophore on N-terminal linker CCPGCCGGGG, WNK4 acidic degron, residues 556-567; source: synthetic peptide (GL Biochem)) [WNK4 WT 556–567 peptide] | 0.29 µM | –
15 | EPEEPEADQHQ (not fully specified (N-terminus); also: Lumio Green fluorophore on N-terminal linker CCPGCCGGGG, WNK4 acidic degron, residues 557-567; also called WNK1/4 degron; 11-residue WNK4 (557–567) degron peptide; source: synthetic peptide (GL Biochem)) [core 11-residue WNK4 peptide (WNK4 WT 557–567), Lumio-Green-labelled] | 0.69 µM and 0.35 µM and 0.51 µM | Kd [4]: > 50 µM
16 | EPEEPEADQHQ (WNK4 acidic degron, residues 557-567; the sentence 'All peptides contained an N-terminal linker' stands in the fluorescence polarization methods; also called WNK4 11-mer peptide; 11-residue WNK4 degron motif; source: synthetic peptide (GL Biochem)) [11-residue WNK4 peptide (EPEEPEADQHQ) used for crystallization] | – | binding result [5]: binds; binding result [6]: binds
